From PMC7720844

How the values were obtained:
[1] = target: WTAP (UniProt Q15007); assay: co-IP, immunoblot; conditions: reference: wild type; sites S43,S50,S525
[2] = target: USP5 (UniProt P45974); assay: anti-myc co-IP, immunoblot; conditions: reference: wild type

Q: Which “binding against the reference” value [1] does the source give for “METTL3 (from UniProt Q86U44) 3A (S43A/S50A/S525A)” here?
A: weaker

Q: For METTL3 (from UniProt Q86U44) S43A, which “binding against the reference” value ([2]; sites S43) is on record?
A: weaker

Q: For METTL3 (from UniProt Q86U44) S50A, which “binding against the reference” value ([2]; sites S50) is on record?
A: weaker

Q: METTL3 (from UniProt Q86U44) S525A was tested. Which “binding against the reference” value ([2]; sites S525) did it give?
A: weaker
